The values below come from publication PMC10654211, “GTPBP8 is required for mitoribosomal biogenesis and mitochondrial translation” (Cellular and Molecular Life Sciences: CMLS, 2023).

Substrate in the series: Nc1nc2c(ncn2[C@@H]2O[C@H](COP(=O)(O)OP(=O)(O)OP(=O)(O)O)[C@@H](O)[C@H]2O)c(=O)[nH]1
Nature of the series: purified protein. The conditions noted are these: 12 μM GTPBP8, 0-3 mM GTP, kit reaction buffer, 25 °C, intrinsic GTPase activity. The series is classed as biochemical, Homo sapiens.

B1: GTPBP8 (GTP-binding protein 8) (Homo sapiens) (protein)
chain: MAAPGLRLGAGRLFEMPAVLERLSRYNSTSQAFAEVLRLPKQQLRKLLYPLQEVERFLAPYGRQDLHLRIFDPSPEDIARADNIFTATERNRIDYVSSAVRIDHAPDLPRPEVCFIGRSNVGKSSLIKALFSLAPEVEVRVSKKPGHTKKMNFFKVGKHFTVVDMPGYGFRAPEDFVDMVETYLKERRNLKRTFLLVDSVVGIQKTDNIAIEMCEEFALPYVIVLTKIDKSSKGHLLKQVLQIQKFVNMKTQGCFPQLFPVSAVTFSGIHLLRCFIASVTGSLD
notes: His-tagged, purified; full-length human CDS in pENTR221, GTPBP8 cloned into pHAT (and pGAT2); full-length 284 residues
In the case of B1, the Km turned out to be 200 ± 40 µM and the turnover number (kcat) was found to be 0.000132 ± 5.5e-05 s⁻¹.
